Source: PMC4516985, “Transactivation of human osteoprotegerin promoter by GATA-3”

B1: mutant G3RE2 probe (dsDNA)
DNA 1: TAACTACCCCAGAGTTGAAGGAGTGA
DNA 2: TCACTCCTTCAACTCTGGGGTAGTTA
B2: mutant G3RE1 probe (dsDNA)
DNA 1: TAGGAAGCTCCCATGGCAATAGCCCT
DNA 2: AGGGCTATTGCCATGGGAGCTTCCTA

How the values were obtained:
GATA-3 [1] = biological target: T1, GATA-3 (Homo sapiens, UniProt P23771 1-443); experiment: competition; excess unlabeled mutant did not compete with biotin-G3RE2; protein source conflict as above; LightShift EMSA Optimization & Control Kit (Thermo 20148) per manufacturer, 6% DNA retardation gel; buffer, salt, pH and temperature not stated; settings: protein: commercial; label: none
T1 sequence (P23771 whole entry): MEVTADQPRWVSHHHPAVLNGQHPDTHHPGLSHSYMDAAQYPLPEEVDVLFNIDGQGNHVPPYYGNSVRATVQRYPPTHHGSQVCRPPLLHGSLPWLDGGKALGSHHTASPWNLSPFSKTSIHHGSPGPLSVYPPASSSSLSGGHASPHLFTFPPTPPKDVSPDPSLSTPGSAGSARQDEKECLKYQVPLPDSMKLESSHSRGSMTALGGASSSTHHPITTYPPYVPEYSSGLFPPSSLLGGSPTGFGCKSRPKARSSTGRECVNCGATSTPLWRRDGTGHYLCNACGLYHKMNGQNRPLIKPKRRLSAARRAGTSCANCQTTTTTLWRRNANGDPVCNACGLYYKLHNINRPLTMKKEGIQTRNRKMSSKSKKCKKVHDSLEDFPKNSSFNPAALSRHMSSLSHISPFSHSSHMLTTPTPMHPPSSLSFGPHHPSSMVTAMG

GATA-3 [2] = biological target: T1, GATA-3; experiment: competition; excess unlabeled mutant did not compete with biotin-G3RE1; protein source conflict as above; LightShift EMSA Optimization & Control Kit (Thermo 20148) per manufacturer, 6% DNA retardation gel; buffer, salt, pH and temperature not stated; settings: protein: commercial; label: none

Row | Binder | binding result (GATA-3 [1]) | binding result (GATA-3 [2])
1 | B1 | no binding | –
2 | B2 | – | no binding
